Test results taken from publication PMC4456287 (Structure (London, England : 1993), 2015).
Changes are numbered by the printed parent chain. Numbers in names are those of the source. Where “and” joins values, the source holds several entries; their conditions need not be identical. Identical values can stand only once. One block for each molecule: values may come before it.

Experiments:
Assay in all cases: ITC
[1] = biological target: Alanine mutations of MRG15 L168 and W172 (human)
[2] = biological target: human MRG15 MRG domain (residues 155-323) (human, UniProt Q9UBU8-2 155-323)
human MRG15 MRG L168A = human MRG15 MRG L168A (human, UniProt Q9UBU8-2 155-323, alanine mutation of L168)
human MRG15 MRG L287A = human MRG15 MRG L287A (human, UniProt Q9UBU8-2 155-323, alanine mutation of L287)
human MRG15 MRG W172A = human MRG15 MRG W172A (human, UniProt Q9UBU8-2 155-323, alanine mutation of W172)
Sequence of human MRG15 MRG W172A (Q9UBU8 194-362 W211A): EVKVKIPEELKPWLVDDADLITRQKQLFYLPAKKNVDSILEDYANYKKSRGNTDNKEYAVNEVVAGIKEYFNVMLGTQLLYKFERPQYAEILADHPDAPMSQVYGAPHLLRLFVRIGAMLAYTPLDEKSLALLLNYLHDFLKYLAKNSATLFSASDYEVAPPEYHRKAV

Sequence of human MRG15 MRG domain (residues 155-323) (Q9UBU8 194-362): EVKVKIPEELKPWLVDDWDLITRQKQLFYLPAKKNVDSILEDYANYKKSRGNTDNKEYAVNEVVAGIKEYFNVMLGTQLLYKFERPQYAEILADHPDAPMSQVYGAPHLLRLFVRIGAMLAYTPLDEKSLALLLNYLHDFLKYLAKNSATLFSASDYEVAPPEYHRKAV
Sequence of human MRG15 MRG L168A (Q9UBU8 194-362 L207A): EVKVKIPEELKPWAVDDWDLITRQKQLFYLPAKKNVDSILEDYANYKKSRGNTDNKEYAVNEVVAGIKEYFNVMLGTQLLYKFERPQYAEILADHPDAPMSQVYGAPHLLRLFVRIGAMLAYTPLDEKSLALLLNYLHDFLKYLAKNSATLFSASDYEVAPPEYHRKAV
Sequence of human MRG15 MRG L287A (Q9UBU8 194-362 L326A): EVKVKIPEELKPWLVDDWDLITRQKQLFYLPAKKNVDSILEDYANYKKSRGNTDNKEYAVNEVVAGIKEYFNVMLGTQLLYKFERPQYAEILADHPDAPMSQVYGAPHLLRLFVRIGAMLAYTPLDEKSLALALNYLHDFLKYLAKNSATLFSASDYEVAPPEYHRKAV

fold reduction in binding affinity [1]: 7 fold and 8 fold
Molecule: human MRGBP MRG-binding domain (residues 69-119) (from UniProt Q9NV56 69-119) (domain or fragment)

Kd [2]: ~60 nM | binding result (human MRG15 MRG L168A): binds | fold effect on binding (human MRG15 MRG L287A): > 2 fold | binding result (human MRG15 MRG W172A): binds
B1: human MRGBP MRG-binding domain (residues 69-119) (domain or fragment, UniProt Q9NV56 69-119, looked up)
chain: GRQVPSKVIWDHLSTMYDMQALHESEILPFPNPERNFVLPEEIIQEVREGK

fold decrease in binding affinity relative to wild-type [2]: ~13 fold
B2: human MRGBP MBD I112A (domain or fragment, UniProt Q9NV56 69-119, looked up)
chain: B1 chain with I44A

fold decrease in binding affinity relative to wild-type [2]: ~3 fold
B3: human MRGBP MBD M84A (domain or fragment, UniProt Q9NV56 69-119, looked up)
chain: B1 chain with M16A

Kd [2]: ~20 nM
B4: human PALB2 MBD (residues 579-629) (domain or fragment, UniProt Q86YC2 579-629, looked up)
chain: AYLSLDDDAFTAPFHRDGMLSLKQLLSFLSITDFQLPDEDFGPLKLEKVKS
